In patent US20050154189A1 (MAXYGEN, published 2005):

Molecular target: T1, Soluble CD28-Ig (human, UniProt P10747 19-152, biotin-conjugated (NHS-biotin) in the labelled-ligand FACS assays)
T1 construct: extracellular domain; Bought from R&D Systems; also called sCD28-Ig; CD28-Ig Fc; not shown: Fc portion of human IgG1
Test: two-colour FACS profile on transfected cells; score of preference for CD28-Ig over CTLA-4-Ig vs WT hB7-1

Binder	Binding Score
Round 2 CD28A8-6 (ligand) SGITPKSVTKRVKETVMPSCDYSTSTEELTSLRIYWQKDSKMVLAILPGKVQVWPEYKNRTITDMNDNPRIVILALRLSDSGTYTCVVQKNENGSFRREHLTSVTLSIRADFPVPSITDIGHPAPNVKRIRCSASGGFPEPRLAWMEDGEELNAVNTTVDQDLDTELYSVSSELDFNVTNNHSIVCLIKYGELSVSQIFPWSKPKQEPPIDQLPFWVIIPVSGALVLTAVVLYCLACRHVARWKRTRRNEETVGTERLSPIYLGSAQSSG	1
Round 2 CD28G1-5 (ligand) SGITPKSVTKRVKETVMLSCDYSTSTEELTSLRIYWQKDSKMVLAILPGKVQVWPEYKNRTFPDIINNLSLMILALRLSDKGTYTCVVQKNENGSFRREHLTSVTLSIRADFPVSSITDIGHPAPNVKRIRCSASGGFPEPRLAWMEDGEELNAVNTTVDQDLDTELYSVSSELDFNVTNNHSIVCLIKYGELSVSQIFPWSKPKQEPPIDQLPFWVIIPVSGALVLTAVVLYCLACRHVARWKRTRRNEETVGTERLSPIYLGSAQSSG	1
Round 2 CD28BP-11 (ligand) SGITPKSVTKRVKETVMLSCDYNASTEELTSLRIYWQKDSKMVLAILPGKVQVWPEYKNRTITDMNDNPRIVILALRLSDKGTYTCVVQKNENGSFRREHLTSVTLSIRADFPVPSITDIGHPAPNVKRIRCSASGGFPEPRLAWMEDGEELNAVNTTVDQDLDTELYSVSSELDFNVTNNHSIVCLIKYGELSVSQIFPWSKPKQEPPIDQLPFWVIIPVSGALVLTAVVLYCLACRHVARWKRTRRNEETVGTERLSPIYLGSAQSSG	2
Round 2 CD28F3-5 (ligand) SGITPKSVTKRVKETVMLSCDYNTSTEELTSLRIYWQKDSKMVLAILPGKVQVWPEYKNRTITDMNDNPRIVILALRLSDSGTYTCVVQKNENGSFRREHLTSVTLSIRADFPVPSITDIGHPAPNVKRIRCSASGGFPEPRLAWMEDGEELNAVNTTVDQDLDTELYSVSSELDFNVTNNHSIVCLIKYGELSVSQIFPWSKPKQEPPIDQLPFWVIIPVSGALVLTAVVLYCLACRHVARWKRTRRNEETVGTERLSPIYLGSAQSSG	0
Round 2 CD28BP-17 (ligand) SGITPKSVTKRVKETVMLSCDYSTSTEELTSLRIYWQKDSKMVLAILPGKVQVWPEYKNRTFPDIINNLSLMILALRLSDKGTYTCVVQKNENGSFRREHLTSVTLSIRADFPVPSITDIGHPAPNVKRIRCSASGDFPEPRLAWMEDGEELNAVNTTVDQDLDTELYSVSSELDFNVTNNHSIVCLIKYGELSVSQIFPWSKPKQEPPIDQLPFWVIIPVSGALVLTVVVLYCLACRHVARWKRTRRNEETVGTERLSPIYLGSAQSSG	2
Round 2 CD28D12-5 (ligand) ITPKSVTKRVKETVMLSCDYSTSTEELTSLRIYWQKDSKMVLAILPGKVQVWPEYKNRTITDMNDNPRIVILALRLSDSGTYTCVIQKPVLKGAYKLEHLASVRLMIRADFPVPSITDIGHPAPNVKRIRCSASGDFPEPRLAWMEDGEELNAVNTTVLDTELYSVSSELDFNVTNNHSIVCLIKYGELSVSQIFPWSKPKQEPPIDQLPFWVIIPVSGALVLTAVVLYCLACRHVARWKRTRRNEETVGTERLSPIYLGSAQPSG	2
Round 2 CD28A2-5 (ligand) ITPKSVTKRVKETVMLSCDYNTSTEELTSLRIYWQKDSKMVLAILPGKVQVWPEYKNRTITDMNDNPRIVILALRLSDSGTYTCVIQKPDLKGAYKLEHLASVRLMIRADFPVPSITDIGHPAPNVKRIRCSASGGFPEPRLAWMEDGEELNAVNTTVDQDLDTELYSVSSELDFNMTSNHSFLCLVKYGDLTVSQTFYWQESKPTPSANQHLTWTIIIPVSAFGISVIIAVILTCLTCRNAAIRRQRRENEGKCKVLSVSIGTKLKFNR	0
Round 2 CD28D11-1 (ligand) ITPKSVTKRVKETVMLSCDYNTSTEELTSLRIYWQKDSKMVLAILPGKVQVWPEYKNRTITDMNDNPRIVILALRLSDSGTYTCVVQKNENGSFRREHLTSVTLSIRADFPVPSITDIGHPAPNVKRIRCSASGDFPEPRLAWMEDGEELNAVNTTVDQDLDTELYSVSSELDFNVTNNHSIVCLIKYGELSVSQIFPWSKPKQEPPIDQLPFWVIILVSGALVLTAVVLYCLACRHVARWKRTRRNEETVGTERLSPIYLGSAQSSG	2
Round 2 CD28D2-3 (ligand) ITPKSVTKRVKETVMLSCDYNTSTEELTSLRIYWQKDSKMVLAILPGKVQVWPEYKNRTITDMNDNPRIVIQALRLSDSGTYTCVIQKPVLKGAYKLEHLASVRLMIRADFPVPTDLGNPSPNIRRLICSTSGGFPRPHLYWLENGEELNATNTTVSQDPGTELYMISSELDFNVTNNHSIVCLIKYGELSVSQIFPWSKPKQEPPIDQLPFWVIIPVSGALVLTAVVLYCLACRHVARWKRTRRNEETVGTERLSPIYLGSAQSSG	1
Round 2 CD28BP-14 (ligand) GISQVTKSVKEMAALSCDYNISIDELARMRIYWQKDQQMVLSIISGQVEVWPEYKNRTITDMNDNPRIVILALRLSDSGTYTCVIQKPVLKGAYKLEHLASVRLMIRADFPVPTINDLGNPSPNIRRLICSTSGGFPRPHLYWLENGEELNATNTTVSQDPGTELYMISSELDFNVTNNHSIVCLIKYGELSVSQIFPWSKPKQEPPIDQLPFWVIIPVSGALVLTAVVLYCLACRHVARWKRTRRNEETVGTERLSPIYLGSAQSSG	2
Round 2 CD28B6-6 (ligand) ITPKSVTKRVKETVMLSCDYSTSTEELTSLRIYWQKDSKMVLAILPGKVQVWPEYKNRTITDMNDNPRIVILALRLSDKGTYTCVIQKPVLKGAYKLEHLTSVTLSIRADFPVPSITDIGHPAPNVKRIRCSASGGFPEPRLAWMEDGEELNAVNTTVDQDLDTELYSVSSELDFNATNNHSIVCLIKYGELSVSQIFPWSKPKQEPPIDQLPFWVIVPVSGALVLTAVVLYCLACRHVAR	1
Round 2 CD28H6-6 (ligand) ITPKSVTKRVKETVMLSCDYSTSTEELTSLRIYWQKDSKMVLAILPGKVQVWPEYKNRTITDMNDNPRIVILALRLSDSGTYTCVIQKPVLKGAYKLEHLASVRLMIRADFPVPTINDLGNPSPNIRRLICSGFPRPHLYWLENGEELNATNTTVSQDPGTELYMISSELDFNVTNNHSIVCLIKYGELSVSQIFPWSKPKQEPPIDQLPFWVIIPVSGALVLTAVVLYCLACRHVARWKRTRRNEETVGTERLSPIYLGSAQSSG	1
Round 2 CD28C2-4 (ligand) GISQVTKSVKEMAALSCDYNISIDELARMRIYWQKDQQMVLSIISGQVEVWPEYKNRTITDMNDNPRIVILALRLSDSGTYTCVIQKPVLKGAYKPEHLASVRLMIRADFPVPTINDLGNPSPNIRRLICSTSGGFPRPHLYWLENGEELNATNTTLSQDPETKLYMISSELDFNMTSNHSFLCLVKYGDLTVSQTFYWQESKPTPSANQHLTWTIIIPVSAFGISVIIAVILTCLTCRNAAIRRQRRENEVEMQSCSQSP	1
Round 2 CD28B4-5* (ligand) SGITPKSVTKRVKETVMLSCDYNTSTEELTSLRIYWQKDSKMVLAILPGKVQVWPEYKNRTITDMNDNPRIVILALRLSDKGTYTCVVQKPDLKGAYKLEHLASVRLMIRADFPVPSITDIGHPAPNVKRIRCSASGGFPEPRLAWMEDGEELNAVNTTVDQDLDTELYSVSSELDFNVTNNHSIVCLIKYGELSVSQIFPWSKPKQEPPIDQLPFWVIIPVSGALVLTAVVLYCLACRHVARWKRTRRNEETVGTERLSPIYLGSAQSSG	0
Round 2 CD28C7-3 (ligand) ITPKSVTKRVKETVMLSCDYSTSTEELTSLRIYWQKDSKMVLAILPGKVQVWPEYKNRTITDMNDNPRIVILALRLSDSGTYTCVIQKPDLKGAYKLEHLTSVRLMIRADFPVPSITDIGHPAPNVKRIRCSASGDFPEPRLAWMEDGEELNAVNTTVDQDLDTELYSVSSELDFNVTNNHSIVCLIKYGELSVSQIFPWSKPKQEPPIDQLPFWVIIPVSGALVLTAVVLYCLACRHVARWKRTRRNEETVGTERLSPIYLGSAQSSG	1
Round 2 CD28F12-5* (ligand) ITPKSVTKRVKETVMLSCDYNTSTEELTSLRIYWQKDSKMVLAILPGKVQVWPEYKNRTITDMNDNPRIVILALRLSDSGTYTCVIQKPDLKGAYKLEHLASVRLMIRADFPVPSITDIGHPAPNVKRIRCSASGDFPEPRLAWMEDGEELNAVNTTVDQDLDTELYSVSSELDFNVTNNHSIVCLIKYGELSVSQIFPWSKPKQEPPIDQLPFWVIIPVSGALVLTAVVLYCLACRHVARWKRTRRNEETVGTERLSPIYLGSAQSSG	1
Round 2 CD28G1-9 (ligand) ITPKSVTKRVKETVMLSCDYNTSTEELTSLRIYWQKDSKMVLAILPGKVQVWPEYKNRTITDMNDNPRIVILALRLSDSGTYTCVIQKPVLKGAYKLEHLTSVRLMIRADFPVPSITDIGHPAPNVKRIRCSASGGFPEPRLAWMEDGEELNAVNTTVDQDLDTELYSVSSELDFNVTNNHSIVCLIKYGELSVSQIFPWSKPKQEPPIDQLPFWVIIPVSGALVLTAVVLYCLACRHVARWKRTRRNEETVGTERLSPIYLGSAQSSG	1
Round 2 CD28F10-2 (ligand) ITPKSVTKRVKETVMLSCDYNTSTEELTSLRIYWQKDSKMVLAILPGKVQVWPEYKNRTITDMNDNPRIVILALRLSDSGTYTCVIQKPDLKGAYKLEHLTSVRLMIRADFPVPSITDIGHPAPNVKRIRCSASGDFPEPRLAWMEDGEELNAVNTTVDQDLDTELYSVSSELDFNVTNNHSIVCLIKYGELSVSQIFPWSKPKQEPPIDQLPFWVIIPVSGALVLTAVVLYCLACRHVARWKRTRRNEETVGTERLSPIYLGSAQSSG	1
